Assay results: PMC10781750, “Structural basis of antiphage immunity generated by a prokaryotic Argonaute-associated SPARSA system” (Nature Communications, 2024)

Biological target: T1, GsSir2 (Sir2-APAZ protein of the SPARSA system from Geobacter sulfurreducens) (Geobacter sulfurreducens, UniProt Q74DF6 1-586)
T1 construct: GsSir2 of Geobacter sulfurreducens, NP_952413.1; That the His tag sits on GsSir2, the first gene of Sir2-RBS-pAgo, is surmised; source: E. coli BL21(DE3), coexpressed with pAgo, purified (Ni-NTA, Superdex 200 SEC)
T1 sequence: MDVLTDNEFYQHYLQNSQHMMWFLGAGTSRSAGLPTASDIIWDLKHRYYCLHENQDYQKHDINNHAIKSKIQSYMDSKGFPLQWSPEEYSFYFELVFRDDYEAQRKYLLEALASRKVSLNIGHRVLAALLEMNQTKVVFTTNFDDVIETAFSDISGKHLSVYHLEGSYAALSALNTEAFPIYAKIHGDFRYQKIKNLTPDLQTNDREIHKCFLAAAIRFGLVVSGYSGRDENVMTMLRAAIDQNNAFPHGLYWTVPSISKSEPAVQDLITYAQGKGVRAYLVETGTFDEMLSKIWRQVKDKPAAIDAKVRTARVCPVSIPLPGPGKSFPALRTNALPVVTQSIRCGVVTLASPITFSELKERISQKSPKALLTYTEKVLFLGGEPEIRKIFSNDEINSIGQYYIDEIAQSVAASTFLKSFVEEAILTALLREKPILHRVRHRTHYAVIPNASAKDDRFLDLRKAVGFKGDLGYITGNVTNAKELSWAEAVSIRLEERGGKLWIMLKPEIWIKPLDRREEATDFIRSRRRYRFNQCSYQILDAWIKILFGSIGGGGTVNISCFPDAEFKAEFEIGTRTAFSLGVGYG
Assay: cryo-EM structure; SPARSA heterodimer (GsSir2 + pAgo) coexpressed and co-purified, endogenous NAD+ bound, no nucleic acids; 2 mg/mL; 3.6 Å
Conditions: both partners purified

stoichiometry N: 1
B1: pAgo (short prokaryotic Argonaute of the SPARSA system from Geobacter sulfurreducens) (natural protein)
chain: not shown
notes: short pAgo of Geobacter sulfurreducens, NP_952414.1; MID domain residues 1-218, PIWI domain residues 219-473; no tag of its own is described; also called short pAgo; source: E. coli BL21(DE3), coexpressed with GsSir2, purified (Ni-NTA, Superdex 200 SEC)
